Assay results reported in patent US20150166663A1.

T1: mouse β6 on transfected HEK-293 cells (mouse) (UniProt Q9Z0T9)
T1 sequence (looked up): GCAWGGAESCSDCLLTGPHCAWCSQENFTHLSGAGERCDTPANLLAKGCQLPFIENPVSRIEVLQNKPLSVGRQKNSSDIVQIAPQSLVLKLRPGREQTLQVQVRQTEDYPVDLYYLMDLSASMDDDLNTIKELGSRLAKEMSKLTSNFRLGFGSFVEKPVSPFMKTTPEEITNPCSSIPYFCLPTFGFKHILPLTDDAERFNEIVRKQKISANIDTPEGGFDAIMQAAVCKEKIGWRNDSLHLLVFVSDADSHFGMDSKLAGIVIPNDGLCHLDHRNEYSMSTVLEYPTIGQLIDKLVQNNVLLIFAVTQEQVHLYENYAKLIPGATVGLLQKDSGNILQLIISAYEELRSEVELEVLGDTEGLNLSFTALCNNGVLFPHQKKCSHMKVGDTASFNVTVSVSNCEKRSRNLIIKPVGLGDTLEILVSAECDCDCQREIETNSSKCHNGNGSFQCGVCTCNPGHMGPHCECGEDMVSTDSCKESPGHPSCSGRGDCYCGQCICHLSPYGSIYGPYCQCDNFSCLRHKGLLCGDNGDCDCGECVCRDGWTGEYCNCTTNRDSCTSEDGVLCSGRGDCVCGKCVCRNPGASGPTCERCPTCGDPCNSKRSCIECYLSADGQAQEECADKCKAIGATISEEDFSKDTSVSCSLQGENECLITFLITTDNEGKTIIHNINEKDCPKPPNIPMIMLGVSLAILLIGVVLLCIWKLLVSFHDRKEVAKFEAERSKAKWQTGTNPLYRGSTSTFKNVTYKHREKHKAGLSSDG

B1: sc 320 (antibody, V domains shown)
VH: EVQLVESGGGLVKPGGSLRLSCAASGYTFTNYIMHWVRQAPGKGLEWVSSISISSSYIYYADSVKGRFTISRDNAKNSLYLQMNSLRAEDTAVYYCARDPVPLERRDYYYGMDVWGQGTTVTVSS
VL: QSVLTQPPSMSAAPGQKVTISCSGSSSNIGNNYVSWYQQLPGTAPKLLIYDNNKRPSGIPDRFSGSKSGTSATLGITGLQTGDEADYYCGTWDSSLSAGVFGGGTKLTVL
B2: sc 133 (antibody, V domains shown)
VH: QVQLVQSGAEVKKPGASVKVSCKASGYTFTGYYMHWVRQAPGQGLEWMGWINPKSGDTNYAQKFQGRVTLTRDTSTSTAYMELSRLRSDDTAVYYCARRLDVWGQGTTVTVSS
VL: QSVLTQPPSVSAAPGQKVTISCSGSSSNIGNNYVSWYQQLPGTAPKLLIYDNNKRPSGIPDRFSGSKSGTSATLGITGLQTGDEADYYCGTWNSSLSAGYVFGTGTKVTV
B3: sc 97 (antibody, V domains shown)
VH: EVQLVQSGAEVKKPGESLKISCKGSGYSFTSYWIGWVRQMPGKGLEWMGIIYPGDSDTRYSPSFQGQVILSADKSISTAYLQWSSLKASDTAMYYCARHDESSGYYYVFDIWGQGTMVTVSS
VL: SYELTQPPSVSVSPGQTARITCSGDALPKKYAYWYQQKSGQAPVLVIYEDIKRPSGIPERFSGSSSGTMATLTISGAQVEDEADYYCYSTDSSGNHWVFFGGGTKLTVL
B4: sc 161 (antibody, V domains shown)
VH: EVQLVQSGAEVKKPGESLKISCKGSGYSFTSYWIGWVRQMPGKGLEWMGIIYPGDSDTRYSPSFQGQVTISADKSISTAYLQWSSLKASDTAMYYCARHGIAAAGFYYYYMDVWGQGTTVTVSS
VL: EIVLTQSPDTLSLSPGERASLSCRASQNVNRNYLVWYQQKPGQAPRLLIYGTSNRATGIPDRFSGSGSGTDFTLTISRLEPEDFAVYYCQQCGSLPFTFGPGTKVDIKR
B5: sc 264 (antibody, V domains shown)
VH: QVQLQESGPGLVKPSQTLSLTCTVSGGSISSGGYYWSWIRQHPGKGLEWIGYIYYSGRTYNNPSLKSRVTISVDTSKNQFSLKLSSVTAADTAVYYCARVATGRGDYHFYAMDVWGQGTTVTVSS
VL: SYELTQPSSVSVSPGQTARITCSGDVLAKKSARWFHQKPGQAPVLVIYKDSERPSGIPERFSGSSSGTTVTLTISGAQVEDEAAYYCYSAADNNLVFGGGTKLTVL
B6: sc 277 (antibody, V domains shown)
VH: EVQLVQSGAEVKKPGESLKISCKGSGYSFPSYWIGWVRQMPGKGLEWMGIIYPGDSDTRYSPSFQGQVTISADKSISTAYLQWSSLKASDTAMYYCARHPMEDGMDVWGQGTTVTVSS
VL: SYELTQPPSVSVSPGQTARITCSGDALPKKYAFWYQQKSGQAPVLVIYDDNKRPSGIPERFSGSSSGTMATLTITGAQVEDEADYYCYSTDSSGHHVFGGGTKLTVL

Experiments:
[1] = target: human αV on parental A375M cells (αVβ3 and αVβ5) (human) (UniProt P06756); assay: FACS, supernatant, parental A375M cells (αVβ3 and αVβ5, no αVβ6)
[2] = target: human αV on parental A375M cells (αVβ3 and αVβ5) (human) (UniProt P06756); assay: cell-based or functional assay
[3] = target: mouse αV on transfected HEK-293 cells (mouse) (UniProt P43406); assay: FACS, purified mAb, transiently transfected HEK-293 cells (parental cells 74)
[4] = target: cynomolgus β6 on transfected HEK-293 cells (cynomolgus); assay: as above
[5] = target: T1, mouse β6 on transfected HEK-293 cells (mouse); assay: as above

Chain of mouse αV on transfected HEK-293 cells (mouse) (P43406 31-1044): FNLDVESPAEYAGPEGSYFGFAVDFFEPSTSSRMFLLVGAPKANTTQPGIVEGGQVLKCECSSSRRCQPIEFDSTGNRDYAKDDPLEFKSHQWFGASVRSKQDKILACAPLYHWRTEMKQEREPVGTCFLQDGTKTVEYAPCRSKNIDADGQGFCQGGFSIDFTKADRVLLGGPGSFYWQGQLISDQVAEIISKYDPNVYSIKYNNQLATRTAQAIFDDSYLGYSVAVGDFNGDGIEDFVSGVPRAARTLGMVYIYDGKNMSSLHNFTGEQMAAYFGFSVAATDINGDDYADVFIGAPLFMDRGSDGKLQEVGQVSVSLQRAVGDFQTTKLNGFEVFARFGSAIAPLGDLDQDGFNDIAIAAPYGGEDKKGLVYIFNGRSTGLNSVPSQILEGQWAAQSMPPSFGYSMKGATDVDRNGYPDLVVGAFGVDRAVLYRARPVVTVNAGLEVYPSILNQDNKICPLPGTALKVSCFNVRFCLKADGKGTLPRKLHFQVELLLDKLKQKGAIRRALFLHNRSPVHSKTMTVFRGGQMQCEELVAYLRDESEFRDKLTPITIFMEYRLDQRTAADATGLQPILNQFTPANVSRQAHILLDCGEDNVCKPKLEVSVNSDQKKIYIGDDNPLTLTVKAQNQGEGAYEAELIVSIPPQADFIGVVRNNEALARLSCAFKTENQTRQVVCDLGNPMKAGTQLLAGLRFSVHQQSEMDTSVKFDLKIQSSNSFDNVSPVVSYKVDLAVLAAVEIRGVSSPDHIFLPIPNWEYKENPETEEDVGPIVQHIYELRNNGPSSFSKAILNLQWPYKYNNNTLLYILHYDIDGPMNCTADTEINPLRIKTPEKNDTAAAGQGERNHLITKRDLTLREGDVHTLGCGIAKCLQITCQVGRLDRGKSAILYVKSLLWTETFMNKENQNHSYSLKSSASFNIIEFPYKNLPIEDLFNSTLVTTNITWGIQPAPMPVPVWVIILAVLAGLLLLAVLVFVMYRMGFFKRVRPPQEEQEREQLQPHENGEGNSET

| Binder | A375M % Shifted Cells [1] [%] | A375M GeoMean [1] | Percent Inhibition, adhesion of A375M cells to osteopontin peptide, 5 µg/ml [2] [%] | percent of cells shifted [3] [%] | percent of cells shifted [4] [%] | percent of cells shifted [5] [%] |
| --- | --- | --- | --- | --- | --- | --- |
| B1 | 15 | 23.2 | – | – | – | – |
| B2 | 24 | 1.79 | 3 | – | – | – |
| B3 | 24 | 1.84 | – | – | – | – |
| B4 | 11 | 16.7 | – | – | – | – |
| B5 | 46 | 2.35 | 3 | 71 | 75 | 68 |
| B6 | 23 | 1.86 | – | – | – | – |
